Experimental data taken from publication PMC7593969.

Columns and labels:
[1] = target: LMP7-Myc, P28062-2; assay: co-IP (anti-Flag IP, anti-Myc IB), band intensity quantified; conditions: 293T cells cotransfected for 24 h; parent: 100; read off a plot
[2] = target: proLMP7-Flag (UniProt P28062); assay: co-IP; HEK293T cotransfected 24 h with Nef-HA constructs and LMP7-Flag constructs; RIPA lysates; anti-Flag antibody and protein G-Sepharose at 4°C overnight; blot with anti-HA
[3] = target: Nef(1 to 115)-(Y115A)-GFP-Flag (HIV-1 (NL4-3)) (UniProt P03406); assay: co-IP; HEK293T cotransfected 24 h with LMP7-Myc and GFP-Flag or Nef(1 to 115)-GFP-Flag constructs; anti-Flag IP; blot with anti-Myc
[4] = target: Nef(1 to 115)-(L112A/Y115A)-GFP-Flag (HIV-1 (NL4-3)) (UniProt P03406); assay: as above
[5] = target: Nef(1 to 115)-(L112A)-GFP-Flag (HIV-1 (NL4-3)) (UniProt P03406); assay: as above
[6] = target: LMP7-His (biotinylated) (UniProt P28062); assay: BLI; biotinylated LMP7 on streptavidin biosensors; GST or Nef-GST in solution; PBS; 1:1 binding model

Chain of LMP7-Myc, P28062-2 (P28062 other isoform, or with tags, fused parts or gaps): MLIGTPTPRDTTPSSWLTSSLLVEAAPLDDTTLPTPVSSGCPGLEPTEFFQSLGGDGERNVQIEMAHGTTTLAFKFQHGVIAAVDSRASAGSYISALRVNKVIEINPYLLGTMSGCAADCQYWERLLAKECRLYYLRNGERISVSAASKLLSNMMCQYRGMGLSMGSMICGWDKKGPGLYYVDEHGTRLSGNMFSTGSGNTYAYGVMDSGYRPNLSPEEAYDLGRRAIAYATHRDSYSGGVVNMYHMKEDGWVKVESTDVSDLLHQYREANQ

Substance: Nef(1 to 115)-GFP-Flag (from UniProt P03406) W113A; I114A; Y115A
- percent of parent [1]: 31%

Substance: Nef(1 to 115)-GFP-Flag (from UniProt P03406) 101-104A
- percent of parent [1]: 53%

Substance: Nef(1 to 115)-GFP-Flag (from UniProt P03406) L110A
- percent of parent [1]: 60%

Substance: Nef(1 to 130)-HA (from UniProt P03406 1-130) (domain or fragment)
- strength of the interaction (co-IP band) relative to Nef(1 to 115) [2]: 40 % higher
- strength of the interaction (co-IP band) relative to Nef(1 to 149) [2]: 20 % stronger

Substance: Nef(1 to 115)-GFP-Flag (from UniProt P03406) D111A
- percent of parent [1]: 130%

Substance: Nef(1 to 115)-GFP-Flag (from UniProt P03406) W113A
- percent of parent [1]: 97%

Substance: Nef(1 to 115)-GFP-Flag (from UniProt P03406) I109A
- percent of parent [1]: 60%

Substance: Nef(1 to 115)-GFP-Flag (from UniProt P03406) I109A; L110A; D111A; L112A
- percent of parent [1]: 28%

Substance: Nef(1 to 115)-GFP-Flag (from UniProt P03406) 105-108A
- percent of parent [1]: 120%

Substance: LMP7-Myc (from UniProt P28062-2 1-272) (natural protein)
- relative co-IP band intensity (Nef(1 to 115) = 100%) [3]: 14%
- relative co-IP band intensity (Nef(1 to 115) = 100%) [4]: 1.4%
- relative co-IP band intensity (Nef(1 to 115) = 100%) [5]: 19%

Substance: Nef(1 to 115)-GFP-Flag (from UniProt P03406) I114A
- percent of parent [1]: 47%

Substance: Nef-GST (from UniProt P03406 1-206) (natural protein)
- BLI wavelength shift [6]: 71.1 pm
- Kd [6]: 735 nM
